Data published in the RNAGym collection of RNA variant scans (doi:10.7554/elife.90254).

B1: OR4K15 (parent)
chain: GUUAACGGUCAUAGGCCAUGGAAACUAGGAGCACCAUUUCGCUGCCAGUGAAGAAAUGAACAAAGAAAAUCUGGGCCAGGCAGGCAUCAAAAGAAAUAGUCUUGCGCUCAACCAGAAAGUCUGUAAUCAUUUUAAGGGUA

Variants of: B1
Test: self-cleavage, relative activity (ratio to wild type); higher = more cleavage; in vitro, sequencing; the parent is a self-cleaving ribozyme
In the case of GUUAACGGUCAUAGGCCAUGGGAACUAGGAGCACCAUUUCGCUGCCAGUGAAGAAAUGAACAAAGAAAAUCUGGGCCAGGCAGGCAUCCAAAGAAAUAGUCUUGCGCUCAACCAGAAAGUCUGUAAUCAUUUUAAGGGUA [A22G A89C], the self-cleavage is reported as 1.28.
For GUUAACGGUCAUAGGCCAUGGGAACUAGGAGCACCAUUUCGCUGCCAGUGAAGAAAUGAACAAAGAAAAUCUGGGCCAGGCAGGCAUCAAAAGAAAUAGUCUUGCGCUCUACCAGAAAGUCUGUAAUCAUUUUAAGGGUA [A22G A110U], the self-cleavage was 0.8.
With GUUAACGGUCAUAGGCCAUGGGAACUAGGAGCACCAUUUCGCUGCCAGUGAAGAAAUGAACAAAGAAAAUCUGGGCCAGGCAGGCAUCAAAAGAAAUAGUCUUGCGCUCCACCAGAAAGUCUGUAAUCAUUUUAAGGGUA [A22G A110C] the self-cleavage was 0.3.
Variant GUUAACGGUCAUAGGCCAUGGGAACUAGGAGCACCAUUUCGCUGCCAGUGAAGAAAUGAACAAAGAAAAUCUGGGCCAGGCAGGCAUCAAAAGAAAUAGUCUUGCGCUCGACCAGAAAGUCUGUAAUCAUUUUAAGGGUA [A22G A110G] has a self-cleavage of 0.08.
Work on GUUAACGGUCAUAGGCCAUGGGAACUAGGAGCACCAUUUCGCUGCCAGUGAAGAAAUGAACAAAGAAAAUCUGGGCCAGGCAGGCAUCAAAAGAAAUGGUCUUGCGCUCAACCAGAAAGUCUGUAAUCAUUUUAAGGGUA [A22G A98G] yielded a self-cleavage of 0.88.
For GUUAACGGUCAUAGGCCAUGGGAACUAGGAGCACCAUUUCGCUGCCAGUGAUGAAAUGAACAAAGAAAAUCUGGGCCAGGCAGGCAUCAAAAGAAAUAGUCUUGCGCUCAACCAGAAAGUCUGUAAUCAUUUUAAGGGUA [A22G A52U], the self-cleavage was 1.02.
GUUAACGGUCAUAGGCCAUGGGAACUAGGAGCACCAUUUCGCUGCCAGUGAAGAAAUGAACAAAGAAAAUCUGGGCCAGGCUGGCAUCAAAAGAAAUAGUCUUGCGCUCAACCAGAAAGUCUGUAAUCAUUUUAAGGGUA [A22G A82U] gave a self-cleavage of 0.36.
Work on GUUAACGGUCAUAGGCCAUGGGAACUAGGAGCACCAUUUCGCUGCCAGUGAAGAAAUGAACAAAGAAAAUCUGGGCCAGGCAGGCAUCAAAAGAAAUAGUCUUGCGCUCAACCAGAAAGUCUGUGAUCAUUUUAAGGGUA [A22G A125G] yielded a self-cleavage of 0.57.
GUUAACGGUCAUAGGCCAUGGGAACUAGGAGCACCAUUUCGCUGCCAGUGAAGAAAUGCACAAAGAAAAUCUGGGCCAGGCAGGCAUCAAAAGAAAUAGUCUUGCGCUCAACCAGAAAGUCUGUAAUCAUUUUAAGGGUA [A22G A59C] showed a self-cleavage of 1.17.
Variant GUUAACGGUCAUAGGCCAUGGGAACUAGGAGCACCAUUUCGCUGCCAGUGAAGAAAUGUACAAAGAAAAUCUGGGCCAGGCAGGCAUCAAAAGAAAUAGUCUUGCGCUCAACCAGAAAGUCUGUAAUCAUUUUAAGGGUA [A22G A59U] has a self-cleavage of 1.11.
Work on GUUAACGGUCAUAGGCCAUGGGAACUAGGAGCACCAUUUCGCUGCCAGUGAAGAAAUGAACAAAGAAAAUCUGGGCCAGGCAGGCAUCAAAAGAACUAGUCUUGCGCUCAACCAGAAAGUCUGUAAUCAUUUUAAGGGUA [A22G A96C] yielded a self-cleavage of 1.58.
With GUUAACGGUCAUAGGCCAUGGGAACUAGGAGCACCAUUUCGCUGCCAGUGAAGAAAUGAACAAAGAAAAUCUGGGCCAGGCAGGCAUCAAAAGAAGUAGUCUUGCGCUCAACCAGAAAGUCUGUAAUCAUUUUAAGGGUA [A22G A96G] the self-cleavage was 1.28.
In the case of GUUAACGGUCAUAGGCCAUGGGAACUAGGAGCACCAUUUCGCUGCCAGUGAAGAAAUGAACAAAGAAAAUCUGGGCCAGGCAGGCAUCAAAAGAAAUAGUCUUGCGCUCAACCUGAAAGUCUGUAAUCAUUUUAAGGGUA [A22G A114U], the self-cleavage is reported as 0.08.
With GUUAACGGUCAUAGGCCAUGGGGACUAGGAGCACCAUUUCGCUGCCAGUGAAGAAAUGAACAAAGAAAAUCUGGGCCAGGCAGGCAUCAAAAGAAAUAGUCUUGCGCUCAACCAGAAAGUCUGUAAUCAUUUUAAGGGUA [A22G A23G] the self-cleavage was 1.09.
With GUUAACGGUCAUAGGCCAUGGGAACUAGGAGCACCAUUUCGCUGCCAGUGAAGAAAUGAACAAAGAAAAUCUGGGCCAGGCAGGCGUCAAAAGAAAUAGUCUUGCGCUCAACCAGAAAGUCUGUAAUCAUUUUAAGGGUA [A22G A86G] the self-cleavage was 1.31.
GUUAACGGUCAUAGGCCAUGGGAACUAGGAGCACCUUUUCGCUGCCAGUGAAGAAAUGAACAAAGAAAAUCUGGGCCAGGCAGGCAUCAAAAGAAAUAGUCUUGCGCUCAACCAGAAAGUCUGUAAUCAUUUUAAGGGUA [A22G A36U] showed a self-cleavage of 0.87.
Variant GUUAACGGUCAUAGGCCAUGGGAACUAGGAGCACCAUUUCGCUGCCAGUGAAGAAGUGAACAAAGAAAAUCUGGGCCAGGCAGGCAUCAAAAGAAAUAGUCUUGCGCUCAACCAGAAAGUCUGUAAUCAUUUUAAGGGUA [A22G A56G] has a self-cleavage of 1.01.
In the case of GUUAACGGUCAUAGGCCAUGGGAACUAGGAGCACCAUUUCGCUGCCAGUGAAGAAAUGAACAAAGAAGAUCUGGGCCAGGCAGGCAUCAAAAGAAAUAGUCUUGCGCUCAACCAGAAAGUCUGUAAUCAUUUUAAGGGUA [A22G A68G], the self-cleavage is reported as 1.31.
GUUAACGGUCAUAGGCCAUGGGAACUAGGAGCACCAUUUCGCUGCCAGUGAAGAAAUGAACAAAGAAACUCUGGGCCAGGCAGGCAUCAAAAGAAAUAGUCUUGCGCUCAACCAGAAAGUCUGUAAUCAUUUUAAGGGUA [A22G A69C] gave a self-cleavage of 0.68.
Work on GUUAACGGUCAUAGGCCAUGGGAACUAGGAGCACCAUUUCGCUGCCAGUGAAGAAAUGAACAAAGAAAAUCUGGGCCAGGCAGGCAUCAAAAGAAAUAGUCUUGCGCUCAACCAGAAAGUCUGUAGUCAUUUUAAGGGUA [A22G A126G] yielded a self-cleavage of 0.85.
Work on GUUAACGGUCAUAGGCCAUGGGAACUAGGAGCACCAUUUCGCUGCCAGUGAAGAAAUGAACAAAGAAAAUCUGGGCCAGGCAGGCAUCAAAAGAAAUAGUCUUGCGCUCAACCAGAAAGUCUGUAUUCAUUUUAAGGGUA [A22G A126U] yielded a self-cleavage of 0.92.
GUUAACGGUCAUAGGCCAUGGGAACUGGGAGCACCAUUUCGCUGCCAGUGAAGAAAUGAACAAAGAAAAUCUGGGCCAGGCAGGCAUCAAAAGAAAUAGUCUUGCGCUCAACCAGAAAGUCUGUAAUCAUUUUAAGGGUA [A22G A27G] gave a self-cleavage of 1.04.
With GUUAACGGUCAUAGGCCAUGGGAACUAGGAGCACCAUUUCGCUGCCAGUGAAGAAAUGAACAAAGAAAAUCUGGGCCAGGCAGGCAUCAAAAGAAAUAGUCUUGCGCUCAACCAGAAAGUCUGUAAUCUUUUUAAGGGUA [A22G A129U] the self-cleavage was 0.78.
GUUAACGGUCAUAGGCCAUGGGAACUAGGAGCACCAUUUCGCUGCCAGUGAAGAAAUGAACAAAGAAAAUCUGGGCCAGGCAGGCAUCAAAAGAAAUAGUCUUGCGCUCAACCAGAAAGUCUGUAAUCGUUUUAAGGGUA [A22G A129G] showed a self-cleavage of 0.61.
With GUUAACGGUCAUAGGCCAUGGGAACUAGGAGCACCAUUUCGCUGCCAGUGAAGCAAUGAACAAAGAAAAUCUGGGCCAGGCAGGCAUCAAAAGAAAUAGUCUUGCGCUCAACCAGAAAGUCUGUAAUCAUUUUAAGGGUA [A22G A54C] the self-cleavage was 1.7.
GUUAACGGUCAUAGGCCAUGGGAACUAGGAGCACCAUUUCGCUGCCAGUGAAGGAAUGAACAAAGAAAAUCUGGGCCAGGCAGGCAUCAAAAGAAAUAGUCUUGCGCUCAACCAGAAAGUCUGUAAUCAUUUUAAGGGUA [A22G A54G] showed a self-cleavage of 0.84.
In the case of GUUAACGGUCAUAGGCCAUGGGAACUAGGAGCACCAUUUCGCUGCCAGUGGAGAAAUGAACAAAGAAAAUCUGGGCCAGGCAGGCAUCAAAAGAAAUAGUCUUGCGCUCAACCAGAAAGUCUGUAAUCAUUUUAAGGGUA [A22G A51G], the self-cleavage is reported as 1.22.
In the case of GUUAACGGUCAUAGGCCAUGGGAACUAGGAGCACCAUUUCGCUGCCAGUGAAGAAAUGAACAAAGAAAAUCUGGGCCAGGCAGGCAUCAAAAGCAAUAGUCUUGCGCUCAACCAGAAAGUCUGUAAUCAUUUUAAGGGUA [A22G A94C], the self-cleavage is reported as 1.21.
With GUUAACGGUCAUAGGCCAUGGGAACUAGGAGCACCAUUUCGCUGCCAGUGAAGAAAUGAACAAAGAAAAUCUGGGCCAGGCAGGCAUCAAAAGGAAUAGUCUUGCGCUCAACCAGAAAGUCUGUAAUCAUUUUAAGGGUA [A22G A94G] the self-cleavage was 0.92.
For GUUAACGGUCAUAGGCCAUGGGAACUAGGAGCUCCAUUUCGCUGCCAGUGAAGAAAUGAACAAAGAAAAUCUGGGCCAGGCAGGCAUCAAAAGAAAUAGUCUUGCGCUCAACCAGAAAGUCUGUAAUCAUUUUAAGGGUA [A22G A33U], the self-cleavage was 1.4.
With GUUAACGGUCAUAGGCCAUGGGAACUAGGAGCGCCAUUUCGCUGCCAGUGAAGAAAUGAACAAAGAAAAUCUGGGCCAGGCAGGCAUCAAAAGAAAUAGUCUUGCGCUCAACCAGAAAGUCUGUAAUCAUUUUAAGGGUA [A22G A33G] the self-cleavage was 0.98.
GUUAACGGUCAUAGGCCAUGGGAACUAGGAGCACCAUUUCGCUGCCAGUGAAGAAAUGAACAAAGACAAUCUGGGCCAGGCAGGCAUCAAAAGAAAUAGUCUUGCGCUCAACCAGAAAGUCUGUAAUCAUUUUAAGGGUA [A22G A67C] showed a self-cleavage of 1.6.
Variant GUUAACGGUCAUAGGCCAUGGGAACUAGGAGCACCAUUUCGCUGCCAGUGAAGAAAUGAACAAAGAAAAUCUGGGCCAGGCAGGCAUCAAAAGAAAUAGUCUUGCGCUCAACCAGUAAGUCUGUAAUCAUUUUAAGGGUA [A22G A116U] has a self-cleavage of 0.35.
Work on GUUAACGGUCAUAGGCCAUGGGAACUAGGAGCACCAUUUCGCUGCCAGUGAAGAAAUGAACAAAGAAAAUCUGGGCCAGGCAGGCAUCAAAAGAAAUAGUCUUGCGCUCAACCAGAAUGUCUGUAAUCAUUUUAAGGGUA [A22G A118U] yielded a self-cleavage of 1.05.
For GUUAACGGUCAUAGGCCAUGGGAACUAGGAGCACCAUUUCGCUGCCAGUGAAGAAAUGAACAAAGAAAAUCUGGGCCAGGCAGGCAUCAGAAGAAAUAGUCUUGCGCUCAACCAGAAAGUCUGUAAUCAUUUUAAGGGUA [A22G A90G], the self-cleavage was 1.12.
Variant GUUAACGGUCAUAGGCCAUGGGAACUAGGAGCACCAUUUCGCUGCCAGUGAAGAAAUGAACAUAGAAAAUCUGGGCCAGGCAGGCAUCAAAAGAAAUAGUCUUGCGCUCAACCAGAAAGUCUGUAAUCAUUUUAAGGGUA [A22G A63U] has a self-cleavage of 1.15.
Variant GUUAACGGUCAUAGGCCAUGGGAGCUAGGAGCACCAUUUCGCUGCCAGUGAAGAAAUGAACAAAGAAAAUCUGGGCCAGGCAGGCAUCAAAAGAAAUAGUCUUGCGCUCAACCAGAAAGUCUGUAAUCAUUUUAAGGGUA [A22G A24G] has a self-cleavage of 1.
In the case of GUUAACGGUCAUAGGCCAUGGGAUCUAGGAGCACCAUUUCGCUGCCAGUGAAGAAAUGAACAAAGAAAAUCUGGGCCAGGCAGGCAUCAAAAGAAAUAGUCUUGCGCUCAACCAGAAAGUCUGUAAUCAUUUUAAGGGUA [A22G A24U], the self-cleavage is reported as 1.27.
In the case of GUUAACGGUCAUAGGCCAUGGGAACUAGGAGCACCAUUUCGCUGCCAGUGAAGAAAUGAACAAAGAAAAUCUGGGCCAGGCAGGCAUCAAAAGAAAUAGUCUUGCGCUCAUCCAGAAAGUCUGUAAUCAUUUUAAGGGUA [A22G A111U], the self-cleavage is reported as 0.04.
GUUAACGGUCAUAGGCCAUGGGAACUAGGAGCACCAUUUCGCUGCCAGUGAAGAAAUGAACAAAGAAAAUCUGGGCCAGGCAGGCAUCAAAAGAAAUAGUCUUGCGCUCAGCCAGAAAGUCUGUAAUCAUUUUAAGGGUA [A22G A111G] showed a self-cleavage of 0.05.
GUUAACGGUCAUAGGCCAUGGGAACUAGGAGCACCAUUUCGCUGCCAGUGAAGAAAUGAGCAAAGAAAAUCUGGGCCAGGCAGGCAUCAAAAGAAAUAGUCUUGCGCUCAACCAGAAAGUCUGUAAUCAUUUUAAGGGUA [A22G A60G] showed a self-cleavage of 0.94.
